In the supplement of paper PMC10567573:

B1: CAMK2D (parent)
chain: LLKHPNIVRLHDSISEEGFHYLVF
B2: ZMYND11 (parent)
chain: YCSIKCQQEHWHAEHKRTCRRKR

Variants of: B1
Experiment: protein stability index of a GFP-peptide fusion (GPS, HEK-293T) (PSI 1-6); higher = more stable
Conditions: c terminus: a fixed tail appended
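Also: lentivirally expressed fusions sorted by FACS into six bins by GFP to DsRed ratio, PSI derived from sequencing read proportions per bin multiplied by bin number.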

Protein stability index, by site and new letter:
F24: Y 2.28 | V 2.12 | T 1.15 | W 1.22

Variants of: B2
Experiment: as above
Conditions: c terminus: native

Protein stability index: each site, then its substitutions
E9: R 2.6 | K 2.17 | C 3.31 | T 1.97 | H 2.78 | M 1.53 | G 2.89 | D 2.31 | I 2.11 | N 1.94 | A 2.65 | W 2.37 | F 2.11 | V 2.93 | L 2.07 | S 1.68 | Q 1.52 | P 2.11 | Y 1.93
H15: A 1.9 | Q 2.06 | E 2.79 | Y 2.01 | M 1.6 | N 2.4 | L 3.01 | K 2.01 | I 1.95 | V 1.24 | T 2.41 | P 2.71 | G 2.44 | R 2.18 | F 1.44 | S 2.44 | W 1.69 | C 2.38
Y1: H 3.9 | N 3.79 | D 2.58 | F 1.67 | K 3.12 | P 3.46 | R 3.62 | G 3.74 | A 3.95 | E 2.91 | T 3.67 | C 3.8 | M 3.94 | Q 3.91 | I 3.23 | W 2.29 | V 3.71 | L 2.86 | S 4.09
T18: V 1.61 | S 2.56 | L 1.27 | C 2.85 | D 2.95 | I 2.76 | N 3.18 | F 2.47 | M 1.91 | K 2.84 | H 2.5 | R 2.29 | G 2.39 | P 2.08 | E 2.56 | Q 3.08 | W 2.16 | A 2.36
H10: P 2.1 | M 1.4 | Q 2.45 | E 2.18 | V 1.11 | R 3.33 | S 2.36 | T 2.07 | K 2.12 | C 1.54 | G 2.81 | D 1.96 | Y 1.73 | I 1.92 | A 1.95 | L 1.65 | N 3.26
R17: T 2.25 | I 2.58 | N 2.28 | H 2.44 | V 2.55 | Y 1.82 | L 2.25 | Q 2.39 | M 2.32 | K 2.27 | A 2.61 | D 2.63 | C 3.29 | W 1.56 | E 2.65 | F 1.8 | S 2.77 | P 2.89
Q7: C 1.95 | L 2.21 | W 1.53 | V 1.37 | T 2.63 | P 2.2 | G 2.46 | N 2.38 | M 2.15 | D 2.56 | S 3.18 | I 2.44 | A 2.36 | K 3.05 | Y 2.35 | F 1.67 | E 2.42 | H 2.69
Q8: T 1.86 | L 1.72 | S 2.51 | P 2.46 | G 2.47 | A 2.33 | M 2.48 | Y 2.08 | C 2.51 | K 2.77 | H 2.21 | F 2.84 | D 2.7 | I 1.49 | E 2.34 | W 1.85 | V 1.78 | N 2.55 | R 2.2
C2: N 3.64 | T 3.44 | G 2.8 | I 1.92 | K 2.68 | E 2.87 | V 1.45 | H 1.54 | F 2.89 | R 3.01 | P 2.2 | D 3.76 | Y 2.85 | S 3.1 | L 2.32 | A 2.1 | M 3.01 | Q 1.79
K5: N 2.53 | L 2.09 | F 1.67 | Y 2.91 | I 1.56 | S 2.22 | Q 3.2 | C 3.25 | A 2.09 | H 2.07 | D 2.63 | P 1.75 | T 2.6 | R 3.15 | G 2.09 | V 1.66 | E 2.51 | M 2.27
W11: D 4.43 | S 3.2 | Y 3.32 | K 3.52 | L 2.97 | C 3.41 | N 3.98 | H 3.45 | F 2.76 | P 4.14 | A 2.98 | T 4.7 | Q 4.24 | V 3.48 | G 4.05 | E 4.32 | M 3.58 | R 2.96 | I 3.03
E14: A 2.94 | T 2.36 | I 1.95 | D 2.26 | F 1.76 | C 2.54 | R 2.35 | S 2.48 | N 2.17 | Q 2.26 | L 1.87 | M 1.77 | Y 2.22 | P 1.84 | K 2.92 | W 1.71 | G 3.11 | H 2.53 | V 2.13
H12: K 2.42 | P 2.64 | Y 3.37 | T 2.33 | C 2.09 | R 2.53 | V 1.54 | M 1.31 | S 2.22 | A 2.35 | I 1.59 | L 2.53 | D 2.82 | N 2.9 | G 2.73 | Q 2.36 | E 2.67
A13: W 1.32 | R 2.49 | Q 2.18 | M 2.86 | K 2.65 | L 1.61 | T 1.98 | G 2.62 | N 2.78 | V 2.89 | C 2.15 | D 3.16 | F 1.83 | Y 2.1 | H 3.55 | P 1.9 | E 2.16 | I 2.58
I4: V 2.51 | G 1.84 | S 2.51 | D 2.6 | P 2.38 | L 2.14 | W 1.89 | A 2.76 | M 1.83 | E 3.25 | C 2.67 | Q 1.94 | F 2.66 | T 2.08 | N 2.9 | Y 3.92 | K 2.37 | R 2.79 | H 2.62
S3: V 2.36 | L 1.7 | A 1.96 | Y 1.94 | I 1.84 | G 1.86 | C 3.31 | W 1.51 | P 2.17 | Q 2.59 | D 3.07 | N 2.85 | F 1.11 | T 2.48 | R 2.19 | M 2.19 | K 2.61 | H 2.24 | E 3.27
C6: T 1.87 | L 1.75 | F 1.96 | S 2.38 | G 2.74 | I 1.78 | N 1.76 | M 1.9 | A 2.39 | V 2.59 | H 2.9 | P 2.57 | K 2.69 | Y 2.07 | Q 1.59 | R 1.56 | D 2.69 | E 2.87 | W 1.77
K16: C 2.74 | N 2.11 | I 2.18 | D 2.43 | Q 2.34 | G 2.83 | L 2.42 | H 2.84 | R 1.76 | Y 1.62 | W 1.74 | F 1.95 | M 2.16 | V 2.39 | S 2.56 | A 2.53 | T 2.71 | E 2.46
